Where a name gives a salt, the structure may show the parent alone.
Assays:
[1] = system: HIFIα and Nip3; experiment: expression of HIFIα and Nip3 (response to decreased intracellular iron); assay type: cell-based
Procedure: It is well established that iron chelators can induce apoptosis. […] To examine this possibility, the expression of two genes, HIFIα and Nip3, was analyzed. The two genes are unregulated in response to decreased intracellular iron concentration. As a control, cells were treated with the bacterial siderophore desferrioxamine (DFO), an iron chelator, and analyzed in parallel.

[2] = system: calcein-loaded HeLa cells; experiment: intracellular iron in living cells with iron-sensing dye calcein; assay type: cell-based; settings: for calcein fluorescence (inverse to intracellular iron level): calcein-loaded HeLa cells expressing 24p3 receptor, FIG. 3
Procedure: In this particular example, intracellular iron levels were measured in living cells using the iron-sensing dye calcein. Calcein is a fluorescent, cell permeable dye. Because its fluorescence is quenched upon iron binding, calcein can be used to measure free (also called labile or chelatable) iron in living cells.

[3] = system: 24p3-mediated apoptosis; experiment: ability of holo-transferrin to block 24p3-mediated apoptosis; assay type: cell-based
From the text: If the basis of 24p3-mediated apoptosis is in fact decreased intracellular iron concentration, then apoptosis should be prevented by iron delivery. To test this prediction, the ability of holo-transferrin to block 24p3-mediated apoptosis was examined.

[4] = system: HeLa/24p3R-L, HeLa/24p3R-S, or HeLa/X7 cells; experiment: intracellular iron monitored by expression of iron-regulated genes ferritin and transferrin receptor 1; assay type: cell-based
Procedure: Experiments were performed to determine whether 24p3R expression would confer on cells the ability to deliver iron in a 24p3-dependent fashion. In these experiments, as well as those described below, three preparations of 24p3 were used: bacterially derived iron-loaded 24p3 (holo-24p3), bacterially derived iron-lacking 24p3 (apo-24p3), and conditioned medium (CM) from cytokine-deprived FL5.12 cells, which contains 24p3 (FL5.12-24p3). The three preparations of 24p3 were added to HeLa/24p3R-L, HeLa/24p3R-S, or HeLa/X7 cells, and, as a control, iron-containing transferrin (holo-transferrin) was added in parallel samples. To monitor intracellular iron concentration, the expression of two iron-regulated genes, ferritin and transferrin receptor 1 were examined.

[5] = system: 32D cells or 32D/BCR-ABL^p190 cells; experiment: cellular ligand-uptake of fluorescently derivatized 24p3 by fluorescence microscopy; assay type: cell-based, mouse
Procedure: A cellular ligand-uptake experiment was performed in which 24p3 was fluorescently derivatized, added to 32D cells or 32D/BCR-ABL^p190 cells, and 24p3 internalization analyzed by fluorescence microscopy.

[6] = system: 24p3R; experiment: ligand-cell binding of 32P-labeled 24p3 to HeLa cells ectopically expressing 24p3R; design: species or system murine
24p3R, sequence (as listed by the source): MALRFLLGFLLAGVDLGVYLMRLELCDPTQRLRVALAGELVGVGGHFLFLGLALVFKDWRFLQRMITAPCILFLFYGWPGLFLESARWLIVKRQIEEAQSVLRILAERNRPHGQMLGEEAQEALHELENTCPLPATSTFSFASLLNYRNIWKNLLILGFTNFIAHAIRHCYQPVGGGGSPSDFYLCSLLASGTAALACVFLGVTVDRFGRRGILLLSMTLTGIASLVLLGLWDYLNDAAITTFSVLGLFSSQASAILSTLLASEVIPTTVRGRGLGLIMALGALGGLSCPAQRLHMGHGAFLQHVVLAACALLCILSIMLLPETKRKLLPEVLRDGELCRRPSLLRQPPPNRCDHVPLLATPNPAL
From the text: HeLa cells expressed only low levels of 24p3R. To perform functional experiments HeLa cell lines were derived that stably express recombinant N-terminal epitope-tagged derivatives of 24p3R-L and 24p3R-S (HeLa/24p3R-L and HeLa/24p3R-S) and, as a control, the empty expression vector (HeLa/X7). Immunoblot analysis confirmed expression of 24p3R in HeLa/24p3R-L and HeLa/24p3R-S cells.
To determine whether the ectopically expressed 24p3R was able to bind 24p3, a series of ligand-cell binding experiments were performed. […] Binding of ^32P-labeled 24p3 to HeLa/24p3R-L and HeLa/24p3R-S was saturable and blocked by the addition of an excess of unlabeled 24p3. […] Thus, ectopically expressed 24p3R can bind to 24p3.

[7] = system: 24p3R; experiment: Internalization assay of 32P-24p3; assay type: cell-based, murine
Procedure: HeLa cells constitutively expressing 24p3R were treated with ^32P-24p3 and at various time points cells were washed three times with PBS and incubated for 15 minutes in proteinase K, trypsin, and EDTA solution to remove the extracellular portion of the receptor. The dislodged cells were then collected and counted.
24p3 and other lipocalins are internalized following binding to their cell surface receptor. […] Thus, cells ectopically expressing 24p3R can be used as reagents for examining the function of 24p3 and 24p3R as well as in assays to identify compounds that affect expression or activity of a 24p3R or a 24p3 (e.g., 24p3 or NGAL).

[8] = system: HeLa/24p3R-L, HeLa/24p3R-S, or HeLa/X7 cells; experiment: 24p3-dependent apoptosis by annexin V-FITC staining; assay type: cell-based; settings: for apoptosis (annexin V-FITC staining; confirmed by PARP and caspase 3 cleavage): HeLa/24p3R-L and HeLa/24p3R-S cells
Procedure: To examine the ability of 24p3R to mediate 24p3-dependent apoptosis, different preparations of 24p3 were added to the three HeLa cell lines described above and apoptosis was analyzed by annexin V-FITC staining. […] Apoptosis was confirmed by analyzing proteolytic cleavage of PARP (poly(ADP-ribose)polymerase) and caspase 3.

[9] = system: HeLa/24p3R-L, HeLa/24p3R-S, or HeLa/X7 cells; experiment: colorimetric determination of intracellular free (non-haem) iron concentration; assay type: cell-based
Procedure: Colorimetric determination of intracellular non-haem iron concentration was measured as described by Leardi et al., (1998, Br. J. Haematol., 102:746-752) with modifications. Briefly, cells were washed twice with ice-cold PBS and then lysed with lysis buffer (1% TRITON™-X100, 10% glycerol. 25 mM HEPES, pH 7.4, in PBS) and incubated with 0.3 N HCl. The proteins in the lysates were precipitated with 10% TCA (trichloroacetic acid) and centrifuged at 1200×g for 15 minutes. The lysates were then mixed with iron chromogen, FERROZINE® (Sigma) in iron buffer reagent (1.5% hydroxylamine HCl in acetate buffer, pH 4.5) and the absorbance was measured spectrophotometrically at 560 nm. The non-heme iron concentration was measured by interpolating the absorbance of each sample using preset iron standards (Sigma) and expressed as mg/dL.
To confirm the results disclosed above, a […] assay that directly measures free iron concentration was employed.

[10] = HeLa/24p3R-L and HeLa/24p3R-S cells

What does the source list for CC(=O)N(O)CCCCCNC(=O)CCC(=O)N(O)CCCCCNC(=O)CCC(=O)N(O)CCCCCN [DFO, deferoxamine mesylate, reference compound]?
expression of HIFIα and Nip3 ([1]; all three HeLa cell lines): induced expression of HIFIα and Nip3; calcein fluorescence (inverse to intracellular iron level) [2]: large increase in fluorescence emission; intracellular iron levels (calcein) ([2]; control HeLa cells (HeLa/X7)): altered iron levels

Which “effect on apoptosis by 24p3” value [3] does the source give for “holo-transferrin: iron-containing transferrin, used as control [reference compound]” here?
Its value is “blocked apoptosis by 24p3”.

And the “effect on apoptosis induced by other agents” value ([3]; apoptosis induced by etoposide or staurosporine)?
The value was “had no effect”.

What about the “intracellular iron concentration (ferritin / transferrin receptor 1 expression)” value ([4]; all three HeLa cell lines) of the same molecule?
The value was “increased iron concentration”.

What about the levels of ferritin ([4]; all three HeLa cell lines) of the same molecule?
The levels of ferritin was “increased levels of ferritin”.

What about the “levels of transferrin receptor 1” value ([4]; all three HeLa cell lines) of the same molecule?
The value was “decreased levels of transferrin receptor 1”.

B1: 24p3: recombinant mouse lipocalin 24p3, ligand of 24p3R; used 32P-labeled or fluorescently derivatized (protein)
chain: QDSTQNLIPAPSLLTVPLQPDFRSDQFRGRWYVVGLAGNAVQKKTEGSFTMYSTIYELQENNSYNVTSILVRDQDQGCRYWIRTFVPSSRAGQFTLGNMHRYPQVQSYNVQVATTDYNQFAMVFFRKTSENKQYFKITLYGRTKELSPELKERFTRFAKSLGLKDDNIIFSVPTDQCIDN
Which “internalization of fluorescently labeled 24p3” value ([5]; 32D cells) does the source give for B1 here?
Its value is “internalized”.

What about the “internalization of fluorescently labeled 24p3” value ([5]; 32D/BCR-ABL^p190 cells) of the same molecule?
Its value is “not 32D/BCR-ABL^p190 cells”.

What about the “binding of 32P-labeled 24p3 to cells” value [6, 10] of the same molecule?
The value was “bound to HeLa/24p3R-L and HeLa/24p3R-S cells”.

What about the “binding of 32P-labeled 24p3 to cells” value ([6]; HeLa/X7 cells (empty vector control)) of the same molecule?
The value was “not to HeLa/X7 cells”.

What about the “internalization of 32P-labeled 24p3” value [7, 10] of the same molecule?
Its value is “internalized by HeLa/24p3R-L and HeLa/24p3R-S cells”.

And the “internalization of 32P-labeled 24p3” value ([7]; HeLa/X7 cells)?
Its value is “not by HeLa/X7 cells”.

B2: apo-24p3: bacterially derived iron-lacking 24p3 (protein)
chain: QDSTQNLIPAPSLLTVPLQPDFRSDQFRGRWYVVGLAGNAVQKKTEGSFTMYSTIYELQENNSYNVTSILVRDQDQGCRYWIRTFVPSSRAGQFTLGNMHRYPQVQSYNVQVATTDYNQFAMVFFRKTSENKQYFKITLYGRTKELSPELKERFTRFAKSLGLKDDNIIFSVPTDQCIDN
With B2 as the molecule, how does the “HIFIα levels and Nip3 transcription” value ([1]; HeLa/24p3R-S cells) read?
Its value is “increased HIFα levels and Nip3 transcription”.

What about the “apoptosis (annexin V-FITC staining; confirmed by PARP and caspase 3 cleavage)” value [8] of the same molecule?
The value was “induced apoptosis”.

And the “apoptosis (annexin V-FITC staining)” value ([8]; HeLa/X7 cells)?
The value was “not in HeLa/X7 cells”.

What about the “calcein fluorescence (inverse to intracellular iron level)” value [2] of the same molecule?
The value was “large increase in fluorescence emission”.

And the “intracellular iron concentration (ferritin / transferrin receptor 1 expression)” value ([4]; all three HeLa cell lines)?
Its value is “did not increase intracellular iron”.

And the “free iron concentration (colorimetric assay)” value (“free iron concentration” for short) [9, 10]?
The value was “substantially reduced free iron concentration”.

B3: holo-24p3: bacterially derived iron-loaded 24p3 (protein)
chain: QDSTQNLIPAPSLLTVPLQPDFRSDQFRGRWYVVGLAGNAVQKKTEGSFTMYSTIYELQENNSYNVTSILVRDQDQGCRYWIRTFVPSSRAGQFTLGNMHRYPQVQSYNVQVATTDYNQFAMVFFRKTSENKQYFKITLYGRTKELSPELKERFTRFAKSLGLKDDNIIFSVPTDQCIDN
With B3 as the molecule, how does the “apoptosis (annexin V-FITC staining; confirmed by PARP and caspase 3 cleavage)” value [8] read?
Its value is “failed to induce apoptosis”.

What about the “calcein fluorescence (inverse to intracellular iron level)” value [2] of the same molecule?
The value was “decrease in fluorescence intensity”.

And the “intracellular iron concentration (ferritin / transferrin receptor 1 expression)” value [4, 10]?
The value was “increased intracellular iron concentration”.

And the “intracellular iron concentration (ferritin / transferrin receptor 1 expression)” value ([4]; HeLa/X7 cells)?
The value was “not in HeLa/X7 cells”.

And the “free iron concentration” value [9, 10]?
Its value is “increased intracellular iron”.

What about the “free iron concentration” value ([9]; HeLa/X7 cells) of the same molecule?
The value was “not in HeLa/X7 cells”.

Reference: US20050214219A1, “24p3 receptors and uses thereof” (priority 2003, published 2005)
